Data taken from patent US7053177B1, “Random peptides that bind to gastro-intestinal tract (GIT) transport receptors and related methods” (Cytogen Corporation, priority 1997, dated 2006).
Read-outs that look alike come from different tables or passages of the source. Ends that are not written are not given here.

Experiments:
[1] = test system: fixed Caco-2 cells; test: ELISA of GST fusion proteins on fixed Caco-2 cells; assay type: binding; settings: in words
Method: Fixed Caco-2, C2BBe1, and A431 cell plates were prepared by growing cells on tissue culture treated microtiter plates. When cells were confluent, plates were fixed with 10% formaldehyde, washed twice with PBS and stored with 0.5% BSA-PBS at −20° C. […] The standard ELISA procedure was followed at this point.
The standard ELISA procedure was modified as follows. GST proteins were diluted to an appropriate concentration in PBS containing 1% BSA and 0.05% Tween20 (1% BPT), titered and incubated one hour at room temperature. Following five washes an anti-GST monoclonal antibody was added (Sigma, St. Louis Clone GST-2 diluted 1:10,000 in 1% BPT) and incubated one hour. After five more washes goat anti-mouse IgG2b-HRP was added (Southern Biotechnology Associates Inc., Birmingham, Ala., diluted 1:4000 in 1% BPT) and incubated one hour. After five washes plates were developed with TMB peroxidase substrate (Kirkegard and Perry, Gaithersburg, Md.). All data is presented with background binding subtracted.

[2] = test system: fixed C2BBe1 cells; test: Competition ELISA: dansylated peptides versus GST fusion proteins on fixed C2BBe1 cells; assay type: binding; settings: 5 μg/ml concentration used in competition assays
Method: The standard ELISA procedure was modified as follows. GST fusion proteins and peptides were diluted to an appropriate concentration in PBS containing 1% BSA and 0.05% Tween 20. Peptides were titered, a constant concentration of diluted GST protein was added to titered peptides and the mixture was incubated one hour at room temperature. Following five washes, an anti-GST monoclonal antibody was added (Sigma, St. Louis Clone GST-2 diluted 1:10,000 in 1% BPT) and incubated one hour. After five more washes goat anti-mouse IgG2b-HRP was added (Southern Biotechnology Associates Inc., Birmingham, Ala., diluted 1:4000 in 1% BPT) and incubated one hour. After five washes plates were developed with TMB peroxidase substrate (Kirkegard and Perry, Gaithersburg, Md.). All data is presented with background binding subtracted.
Data is presented as O.D. vs. peptide concentration and as percent inhibition of GST-P31 binding vs. peptide concentration. Uncompeted GST-P31 binding was considered as 100% binding.
FIGS. 10A–10C present a compilation of data generated by competition ELISA of GST-P31, GST-PAX2, GST-SNi10 and GST-HAX42 versus various dansylated peptides on fixed C2BBe1 cells. IC50 values are in μM and include ranges determined from multiple assays. The GST/C2BBe1 column is a summary of GST protein binding to fixed C2BBe1 cells.

[3] = test system: P100 membrane fraction of Caco-2 cells; test: GST-PAX2 peptides: relative binding to P100 fractions (ratio to GST-HAX42); settings: GST-peptide 20 μg/ml; binding to plastic subtracted; GST-HAX42 = 1.00
Method: The peptides and proteins were analyzed by a dansylated peptide ELISA method in which 96 well plates were coated overnight at 4° C. with 100 μl/well coating protein (normally 100 μg/ml P100 membrane fraction) in 0.05M carbonate buffer pH9.6. Nonspecific binding was blocked using 200 μl/well, 2% Marvel/PBS for 2 hours at 37° C. prior to incubation with dansylated peptides. The plates were washed three times with PBS/0.05% Tween 20 and after each subsequent incubation step. […] A buffer blank control was included to ensure that background binding to plastic was not due to the antibodies used in the assay system. […] The plates were then incubated with an anti-mouse λ-HRP conjugated antibody (Southern Biotech 1060-05) at a 1:10,000 dilution in blocking solution, 100 μl/well for 1 hour at room temperature. Plates were developed using 75 μl/well Bionostics TMB substrate and incubated for approximately 10 minutes. The developing reaction was stopped using Bionostics Red Stop solution (25 μl/well), and the optical density of the plates was read at 650 nm.
After subtraction of the GST-peptide binding to plastic from P100 binding values, the binding of GST-PAX2 peptides were represented as a ratio of GST-HAX42 binding to P100, which was given the arbitrary value of 1.00. The following ratios were determined from binding to P100 of GST-peptides at a peptide concentration of 20 μg/ml. […]

[4] = biological target: T1, hPEPT1 (Homo sapiens, UniProt P46059); test: Receptor ELISA of phage on recombinant hPEPT1; assay type: binding; settings: Table 4
T1 construct: 391–571; made in house
T1 sequence (P46059 391-571): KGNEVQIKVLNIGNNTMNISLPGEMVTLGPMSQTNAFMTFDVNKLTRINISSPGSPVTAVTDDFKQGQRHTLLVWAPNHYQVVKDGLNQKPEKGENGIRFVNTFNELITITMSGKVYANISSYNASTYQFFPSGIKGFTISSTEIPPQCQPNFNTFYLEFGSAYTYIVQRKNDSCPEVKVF
Method: (§1) 96 well plates were coated overnight with GIT receptor, BSA and, optionally, IDE (insulin degrading enzyme, an irrelevant His-fusion protein)or hTF. The plates were blocked for one hour with 0.5% BSA-PBS. After clarification, the amplified phage were diluted 1:100 in 1% BSA plus 0.05% Tween 20 in PBS and added to the plates. Following incubation of the plates on a rotator for 1 to 2 hours, the plates were washed 5 times with 1% BSA plus 0.05% Tween 20 in PBS. […] After the plates were washed 5 times, as described above, TMB substrate was added to the wells. The plates were read at 650 nm absorbance.

[5] = biological target: BSA (Bos taurus, UniProt P02769); test: Receptor ELISA of phage on BSA (background control protein); assay type: binding; settings: Table 4; phage panned on hPEPT1
Chain of BSA (P02769 25-607): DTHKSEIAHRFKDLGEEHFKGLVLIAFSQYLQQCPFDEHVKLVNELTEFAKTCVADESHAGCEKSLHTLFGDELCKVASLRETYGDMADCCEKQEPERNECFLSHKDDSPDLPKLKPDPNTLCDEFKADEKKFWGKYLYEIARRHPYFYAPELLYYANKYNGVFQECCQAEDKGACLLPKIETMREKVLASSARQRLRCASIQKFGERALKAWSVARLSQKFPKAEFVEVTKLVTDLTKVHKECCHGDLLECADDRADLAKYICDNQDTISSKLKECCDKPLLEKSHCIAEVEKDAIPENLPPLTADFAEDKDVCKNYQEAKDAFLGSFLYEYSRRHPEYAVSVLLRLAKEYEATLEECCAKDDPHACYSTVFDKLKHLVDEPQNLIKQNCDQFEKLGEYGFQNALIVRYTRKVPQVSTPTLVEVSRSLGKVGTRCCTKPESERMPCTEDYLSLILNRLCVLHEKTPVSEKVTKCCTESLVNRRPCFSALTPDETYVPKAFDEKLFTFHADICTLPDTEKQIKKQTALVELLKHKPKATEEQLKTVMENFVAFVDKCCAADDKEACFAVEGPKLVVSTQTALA
Method: 96 well plates were coated overnight with GIT receptor, BSA and, optionally, IDE (insulin degrading enzyme, an irrelevant His-fusion protein)or hTF. The plates were blocked for one hour with 0.5% BSA-PBS. After clarification, the amplified phage were diluted 1:100 in 1% BSA plus 0.05% Tween 20 in PBS and added to the plates. Following incubation of the plates on a rotator for 1 to 2 hours, the plates were washed 5 times with 1% BSA plus 0.05% Tween 20 in PBS. Dilute anti-M13-HRP conjugate (anti-M13 antibody linked to horse radish peroxidase (HRP)) was added to all the wells and the plate was incubated for one hour on a rotator. After the plates were washed 5 times, as described above, TMB substrate was added to the wells. The plates were read at 650 nm absorbance.

[6] = test system: rat gastro-intestinal tract (closed loop); test: Transport of preselected phage libraries in rat closed loop, detected by oligonucleotide hybridization/autoradiography; settings: hPEPT1 pool; in words
[7] = biological target: bovine serum albumin (bovine) (UniProt P02769); test: phage ELISA on coated BSA
Chain of bovine serum albumin (bovine) (P02769 25-607 limits assumed): as the sequence (P02769 25-607) above

[8] = biological target: T2, recombinant HPT1 receptor domain (human intestinal peptide-associated transporter HPT1, amino acid residues 29-273), His-tag fusion protein (human) (UniProt Q12864); test: phage ELISA on coated HPT1
T2 sequence: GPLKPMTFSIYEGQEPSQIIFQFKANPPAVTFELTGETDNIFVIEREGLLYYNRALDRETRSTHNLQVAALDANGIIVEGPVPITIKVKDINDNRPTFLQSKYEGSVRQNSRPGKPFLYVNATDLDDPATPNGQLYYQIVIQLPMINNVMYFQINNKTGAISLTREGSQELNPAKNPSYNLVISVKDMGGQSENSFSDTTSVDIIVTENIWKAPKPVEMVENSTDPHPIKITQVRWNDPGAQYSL

[9] = biological target: T2, recombinant HPT1 receptor domain (human intestinal peptide-associated transporter HPT1, amino acid residues 29-273), His-tag fusion protein (human); test: phage ELISA, OD on HPT1 over OD on BSA
[10] = biological target: T3, recombinant HPT1 receptor domain (human intestinal peptide-associated transporter HPT1, amino acid residues … (human, UniProt Q12864 29-273)); test: phage ELISA, OD on HPT1 over OD on BSA
T3 construct: purified under denaturing conditions; coated on plates
T3 sequence: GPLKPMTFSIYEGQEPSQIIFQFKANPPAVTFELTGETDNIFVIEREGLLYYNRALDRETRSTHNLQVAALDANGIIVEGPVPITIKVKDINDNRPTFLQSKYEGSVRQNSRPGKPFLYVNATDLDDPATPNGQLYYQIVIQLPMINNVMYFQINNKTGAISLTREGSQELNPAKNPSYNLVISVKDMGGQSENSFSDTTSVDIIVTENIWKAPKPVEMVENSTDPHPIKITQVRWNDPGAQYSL
Method: as §1, with “6.6. Receptor ELISA Procedure 96” for “96”

[11] = biological target: T4, recombinant hSI receptor domain (human sucrase-isomaltase complex, amino acid residues 272-667), His-tag … (human, UniProt P14410 272-667); test: phage ELISA on coated hSI
T4 construct: purified under denaturing conditions on Ni-NTA agarose; coated on plates; also called hS1
T4 sequence (P14410 272-667 limits assumed, form in doubt, one chain of several): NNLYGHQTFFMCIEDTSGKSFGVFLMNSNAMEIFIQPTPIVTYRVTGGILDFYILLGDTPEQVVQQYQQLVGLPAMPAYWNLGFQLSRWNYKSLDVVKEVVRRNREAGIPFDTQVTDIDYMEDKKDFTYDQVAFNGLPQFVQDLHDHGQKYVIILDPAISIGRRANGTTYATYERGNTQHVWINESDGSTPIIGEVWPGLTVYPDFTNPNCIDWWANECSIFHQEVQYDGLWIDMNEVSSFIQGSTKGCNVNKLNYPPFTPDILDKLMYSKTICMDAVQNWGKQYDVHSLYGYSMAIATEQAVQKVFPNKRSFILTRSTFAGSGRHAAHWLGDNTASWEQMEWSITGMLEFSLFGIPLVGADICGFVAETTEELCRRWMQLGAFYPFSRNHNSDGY
Method: as §1, with “6.6. Receptor ELISA Procedure 96” for “96”

[12] = biological target: T4, recombinant hSI receptor domain (human …); test: phage ELISA, OD on hSI over OD on BSA
Method: as §1, with “6.6. Receptor ELISA Procedure 96” for “96”

[13] = biological target: bovine serum albumin (bovine) (UniProt P02769); test: phage ELISA on coated BSA; remark: listed apart in the source
[14] = biological target: T5, recombinant D2H receptor domain (human D2H transporter, amino acid residues 387-685), His-tag fusion protein (human), Q07837; test: phage ELISA on coated D2H
T5 chain: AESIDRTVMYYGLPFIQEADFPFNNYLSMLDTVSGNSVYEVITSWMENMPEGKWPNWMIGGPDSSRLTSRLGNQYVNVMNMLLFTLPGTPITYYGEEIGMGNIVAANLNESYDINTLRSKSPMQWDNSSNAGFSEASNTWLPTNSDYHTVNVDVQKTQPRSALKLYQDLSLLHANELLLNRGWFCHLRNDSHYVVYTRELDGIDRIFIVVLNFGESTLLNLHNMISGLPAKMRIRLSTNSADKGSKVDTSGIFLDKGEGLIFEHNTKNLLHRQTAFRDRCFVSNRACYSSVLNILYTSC

[15] = biological target: T5, recombinant D2H receptor domain (human …); test: phage ELISA, OD on D2H over OD on BSA
[16] = biological target: T6, recombinant D2H receptor domain (human D2H transporter, amino acid residues 387-685), His-tag fusion protein (human, UniProt Q07837 387-685); test: phage ELISA, OD on D2H over OD on BSA
T6 construct: purified under denaturing conditions; coated on plates
T6 sequence: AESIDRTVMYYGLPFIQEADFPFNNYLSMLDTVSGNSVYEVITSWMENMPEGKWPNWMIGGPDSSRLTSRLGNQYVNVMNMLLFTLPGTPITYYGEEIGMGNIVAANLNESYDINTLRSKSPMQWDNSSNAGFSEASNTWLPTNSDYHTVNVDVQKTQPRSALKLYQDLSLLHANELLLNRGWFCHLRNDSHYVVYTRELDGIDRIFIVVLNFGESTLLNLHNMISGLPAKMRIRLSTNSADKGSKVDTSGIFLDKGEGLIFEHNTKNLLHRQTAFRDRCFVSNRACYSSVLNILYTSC
Method: as §1, with “6.6. Receptor ELISA Procedure 96” for “96”
Binding to fixed Caco-2 cells, D2H and BSA was examined.

GST-HAX42: GST-fusion protein from HAX42 (SDHALGTNLRSDNAKEPGDYNCCGNGNSTGRKVFNRRRPSAIPT; cysteine pairing not given here; also: GST fusion)
Binding to fixed Caco-2 or C2BBe1 cells relative to GST control [1]: weak to moderate binding
Crossreactivity of GST fusion to ZElan018 (PAX2) and ZElan021 (HAX42) [2]: exhibited crossreactivity
Value (binding to P100 as ratio of GST-HAX42 binding) [3]: 1.00

RGSTGTAGGERSGVLNLHTRDNASGSGFKPWYPSNRGHK (not fully specified) [Peptide 5PAX5]
hPEPT1 ([4]; phage panned on hPEPT1): 0.15 OD
PEPT1/BSA ([4]; ratio of hPEPT1 to BSA binding): 4
BSA [5]: 0.036 OD
Binding to / presence in the intestine samples [6]: not found
Presence in the portal circulation [6]: not found
Presence in the systemic circulation [6]: found in the systemic circulation

SREEANWDGYKREMSHRSRFWDATHLSRPRRPANSGDPN (peptide, not shown: large carriers, also: displayed as N-terminal pIII fusion on M13 phage) [phage HAX9]
OD [7]: 0.075 OD 650 nm
OD [8]: 0.382 OD 650 nm
HPT/BSA [9]: 5

B1: phage HAX40 (peptide)
peptide: REFAERRLWGCDDLSWRLDAEGCGPTPSNRAVKHRKPRPRSPAL
modifications: cysteine pairing not given here; also: displayed as N-terminal pIII fusion on M13 phage
notes: M13 phage displaying this insert as N-terminal pIII fusion; whole phage in the ELISA; also called H44; not shown: M13 pIII display protein and the vector-encoded flanking residues
OD [7]: 0.065 OD 650 nm
HPT/BSA [10]: 15 ratio

B2: phage HAX42 (peptide, not shown: large carriers)
peptide: SDHALGTNLRSDNAKEPGDYNCCGNGNSTGRKVFNRRRPSAIPT
modifications: cysteine pairing not given here; also: displayed as N-terminal pIII fusion on M13 phage
OD [7]: 0.071 OD 650 nm
OD [8]: 0.32 OD 650 nm
HPT/BSA [9]: 5

B3: phage HCA3 (peptide)
peptide: RHISEYSFANSHLMGGESKRKGCGINGSFSPTCPRSPTPAFRRT
modifications: cysteine pairing not given here; also: displayed as N-terminal pIII fusion on M13 phage
notes: M13 phage displaying this insert as N-terminal pIII fusion; whole phage in the ELISA; not shown: M13 pIII display protein and the vector-encoded flanking residues
OD [7]: 0.038 OD 650 nm
HPT1/BSA [10]: 1 ratio

B4: phage S21 (peptide)
peptide: SPRSFWPVVSRHESFGISNYLGCGYRTCISGTMTKSSPIYPRHS
notes: M13 phage displaying this insert as N-terminal pIII fusion; whole phage in the ELISA
OD [7]: 0.092 OD 650 nm
OD [11]: 0.845 OD 650 nm
hSI/BSA [12]: 9 ratio

SGSLNAWQPRSWVGGAFRSHANNNLNPKPTMVTRHPT (modifications not checked) [phage DCX39]
OD [13]: 0.066 OD 650 nm
OD [14]: 0.299 OD 650 nm
D2H/BSA [15]: 5

B5: phage DCX36 (peptide)
peptide: SWSSWNWSSKTTRLGDRATREGCGPSQSDGCPYNGRLTTVKPRT
notes: as for B4
D2H/BSA [16]: 5 ratio
